In US10836815B2, “Generation and comparative kinetic analysis of new glycosynthase mutants from Streptococcus pyogenes endoglycosidases for antibody glycoengineering” (UNIVERSITY OF MARYLAND, COLLEGE PARK, priority 2017, dated 2020):
Changes are numbered by the printed parent chain. Names may count otherwise. “Also recorded” adds a separate entry of the source.

How the values were obtained:
Format in all cases: biochemical
rituximab = assay: Hydrolysis activity assay of Endo-S and D233 mutants, LC-ESI-MS; conditions: for Specific Hydrolysis Activity: rituximab 1.0 mg/mL as substrate, enzyme 0.01 mg/mL, PBS pH 7.4, 30° C., 5 min, duplicate
Experimental: (§1) The hydrolytic activity of the mutants generated was evaluated using rituximab as the substrate, and the transglycosylation activity was evaluated using the sugar oxazoline and the deglycosylated rituximab as the donor and acceptor substrates, respectively (Scheme 1).
(§2) The LC-MS characterization of different antibody glycoforms was conducted on an Exactive Plus Orbitrap instrument (Thermo Scientific). The intact antibody sample was analyzed with a Waters XBridge™ BEH300 C4 column (3.5 μm, 2.1×50 mm). The program includes a 9 min linear gradient of 5-90% MeCN containing 0.1% formic acid at a flow rate of 0.4 mL/min. The original mass data were processed through deconvolution and integration through MagTran Software (Amgen).
(§3) Peptide-N-Glycosidase F (PNGase F) treated rituximab was used as the internal standard due to its similarities to the deglycosylated and transferred product in terms of their molecular structures and ionization efficiencies. After PNGase F treatment, a mutation will be introduced into the amino acid sequence of rituximab so the product antibody will not interfere with the reaction via re-glycosylation^35. A standard product S2G2F-rituximab was synthesized following the previously reported procedure^29. […] Serial dilutions containing a gradient of S2G2F-rituximab (0, 0.25, 0.5, 0.75, 1.0, 1.25 and 1.5 μM) were mixed with a stock solution containing 0.67 μM internal standard. These mixed sample solutions were quantified by selected ion monitoring (SIM) to calculate the single-point normalization factor^31. The factor could then be used to calculate the relative amount of the final product N-glycoform for each reaction in the following experiments.
(§4) The hydrolytic activity of each Endo-S mutants and the wild-type (0.01 mg/mL) was assayed in PBS (pH 7.4, 10 μl) at 30° C. with synthetic biantennary sialo-complex-type rituximab (1.0 mg/mL, 6.9 μM) as the starting material. Each reaction was terminated at 5 min and an aliquot was taken from the reaction mixture and dissolved in 0.1% formic acid. The relative quantity of the hydrolysis product was calculated through deconvolution and integration of the selected MS peaks. The experimental details of product quantification using LC-MS are illustrated below. The transglycosylation activity of Endo-S was measured in a similar fashion: deglycosylated Rituximab (10.0 mg/mL, 69 μM) was incubated with SCT-Oxa (1.38 mM, 20 eq) under catalysis of Endo-S enzymes (0.01 mg/mL) under the same condition as hydrolysis. The transglycosylation product SCT-Rituximab was analyzed as mentioned above. Both functional assays were repeated twice for each mutant and the wild-type, and the average activity was recorded

deglycosylated rituximab [1] = assay: Transglycosylation activity assay of Endo-S and D233 mutants, LC-ESI-MS; conditions: for Transglycosylation Activity: deglycosylated rituximab 10.0 mg/mL, SCT-Oxa 1.38 mM (20 eq), enzyme 0.01 mg/mL, PBS pH 7.4, 30° C., duplicate; for Transglycosylation/Hydrolysis Ratio T/H: ratio of transglycosylation to hydrolysis activity, Table 1
Experimental: as §1, §2, §3, §4

[2] = Kinetic measurements (KM, Vmax) of Endo-S/Endo-S2 mutants for SCT-Oxa; conditions: for Km / kcat: Endo-S mutants, donor substrate SCT-Oxa, PBS pH 7.4, 30° C.
Experimental: Using a sialylated glycan oxazoline (SCT-Oxa) as the donor and the deglycosylated rituximab as the acceptor substrate, we measured the kinetic parameters of the enzyme catalyzed glycosylation were measured. A mass spectrometry-based approach with an internal standard was used to estimate the product formation.^31-33.
as §3
Measurements of KM and Vmax for SCT-oxa. Serial dilutions with a total volume of 10 μL were prepared with a gradient of SCT-oxa concentrations and a constant deglycosylated antibody concentration mixed in PBS, pH 7.4. Each reaction was initiated by adding 1μμL, of Endo-S/S2 mutants with a concentration of 0.1 mg/M1 and the reaction was conducted at 30° C. The concentrations of SCT-oxa were within a range from 6.25 μM to 400 μM. For each reaction, three aliquots were taken at t=1, 2 and 3 min and immediately quenched in 100 μL 0.1% formic acid. The quenched reaction samples were then characterized by ESI-MS, and the concentration of product in each mixture was calculated using the normalization factor, as shown above. […] The KM and Vmax were measured by fitting the initial velocity against the SCT-oxa concentration using the GraphPad Prism7 program. The experiments were conducts in triplicate to determine the error in these measurements.

deglycosylated rituximab [3] = assay: Kinetic measurements (KM, Vmax) of Endo-S/Endo-S2 mutants for deglycosylated rituximab
Description: as §3
Measurements of KM and Vmax for SCT-oxa. Serial dilutions with a total volume of 10 μL were prepared with a gradient of SCT-oxa concentrations and a constant deglycosylated antibody concentration mixed in PBS, pH 7.4. Each reaction was initiated by adding 1μμL, of Endo-S/S2 mutants with a concentration of 0.1 mg/M1 and the reaction was conducted at 30° C. The concentrations of SCT-oxa were within a range from 6.25 μM to 400 μM. For each reaction, three aliquots were taken at t=1, 2 and 3 min and immediately quenched in 100 μL 0.1% formic acid. The quenched reaction samples were then characterized by ESI-MS, and the concentration of product in each mixture was calculated using the normalization factor, as shown above. A linear progression curve was confirmed for each reaction by sampling at multiple early time points and plotting them in the same graph, which emphasized that the V0 measured indeed represents the initial rate of each reaction. The KM and Vmax were measured by fitting the initial velocity against the SCT-oxa concentration using the GraphPad Prism7 program. The experiments were conducts in triplicate to determine the error in these measurements.
The KM and Vmax values of both Endo-S and Endo-S2 mutants for the deglycosylated antibody substrate were measured in a similar fashion as to those for SCT-Oxa. In the serial reactions, the concentrations of antibody range from 0.313 μM to 20 μM, whereas the SCT-Oxa concentration was fixed at 400 μM. A similar control reaction was also performed for each concentration to monitor the non-enzymatic side reactions.

deglycosylated rituximab [4] = assay: Time-course comparison of transglycosylation with SCT-Oxazoline monitored by LC-ESI-MS (FIG. 1); conditions: D233M, D233Q, D233A compared with glycan oxazoline under same conditions
Description: The data sets presented here are representative of three independent experiments.
The parallel reactions were monitored by LC-ESI-MS (FIG. 1).

[5] = Endo-S mutants, acceptor substrate deglycosylated rituximab, SCT-Oxa fixed at 400 μM

B1: Endo-S D233M (protein)
chain: MDKHLLVKRTLGCVCAATLMGAALATHHDSLNTVKAEEKTVQVQKGLPSIDSLHYLSENSKKEFKEELSKAGQESQKVKEILAKAQQADKQAQELAKMKIPEKIPMKPLHGPLYGGYFRTWHDKTSDPTEKDKVNSMGELPKEVDLAFIFHDWTKDYSLFWKELATKHVPKLNKQGTRVIRTIPWRFLAGGDNSGIAEDTSKYPNTPEGNKALAKAIVDEYVYKYNLDGLDVMVEHDSIPKVDKKEDTAGVERSIQVFEEIGKLIGPKGVDKSRLFIMDSTYMADKNPLIERGAPYINLLLVQVYGSQGEKGGWEPVSNRPEKTMEERWQGYSKYIRPEQYMIGFSFYEENAQEGNLWYDINSRKDEDKANGINTDITGTRAERYARWQPKTGGVKGGIFSYAIDRDGVAHQPKKYAKQKEFKDATDNIFHSDYSVSKALKTVMLKDKSYDLIDEKDFPDKALREAVMAQVGTRKGDLERFNGTLRLDNPAIQSLEGLNKFKKLAQLDLIGLSRITKLDRSVLPANMKPGKDTLETVLETYKKDNKEEPATIPPVSLKVSGLTGLKELDLSGFDRETLAGLDAATLTSLEKVDISGNKLDLAPGTENRQIFDTMLSTISNHVGSNEQTVKFDKQKPTGHYPDTYGKTSLRLPVANEKVDLQSQLLFGTVTNQGTLINSEADYKAYQNHKIAGRSFVDSNYHYNNFKVSYENYTVKVTDSTLGTTTDKTLATDKEETYKVDFFSPADKTKAVHTAKVIVGDEKTMMVNLAEGATVIGGSADPVNARKVFDGQLGSETDNISLGWDSKQSIIFKLKEDGLIKHWRFFNDSARNPETTNKPIQEASLQIFNIKDYNLDNLLENPNKFDDEKYWITVDTYSAQGERATAFSNTLNNITSKYWRVVFDTKGDRYSSPVVPELQILGYPLPNADTIMKTVTTAKELSQQKDKFSQKMLDELKIKEMALETSLNSKIFDVTAINANAGVLKDCIEKRQLLKK
For B1, the “Specific Hydrolysis Activity” value (rituximab) was 0.02 100*(μmol/min/mg), the “hydrolysis activity (in words)” value (rituximab; rituximab as substrate, compared with wild type Endo-S and other mutants) was “remarkably low residual hydrolysis activity” and the “enhanced synthetic efficiency (T/H) over D233A” value (deglycosylated rituximab [1]; based on Table 1) was about 8 fold. The “enhanced synthetic efficiency (T/H) over D233Q” value (deglycosylated rituximab [1]; based on Table 1) was “approximately 3 fold”, the “transglycosylation activity (in words)” value (deglycosylated rituximab [1]; biantennary complex-type glycan oxazoline to deglycosylated rituximab) was “most significant transglycosylation activities; also recorded: relatively high transglycosylation activity” and the “Transglycosylation Activity” value (deglycosylated rituximab [1]) was 2.71 100*(μmol/min/mg). For the same molecule, the “Transglycosylation/Hydrolysis Ratio T/H” value (deglycosylated rituximab [1]) was 135.50, the “overall efficiency for glycoform synthesis (T/H, in words)” value (deglycosylated rituximab [1]; ratio of transglycosylation/hydrolysis) was “highest overall synthetic efficiency” and the Km [2] was 195 ± 7.21 µM. The kcat [2] was 0.0832 ± 0.0152 s⁻¹, the “increase in kcat/KM over Endo-S D233A” value ([2]; SCT-Oxa) was 3 fold and the “increase in turnover (kcat) over D233A” value ([2]; SCT-Oxa) was “approximately 4 fold”. The “reduced affinity (KM) versus D233A” value ([2]; SCT-Oxa) was “less than 2 fold”, the “substrate affinity for the deglycosylated antibody (in words)” value (deglycosylated rituximab [3]; Asp-to-Met versus Asp-to-Ala mutant) was “much higher substrate affinity than the D233A mutant” and the Km (deglycosylated rituximab [3]; [5]) was 30.2 ± 7.21 µM. For the same molecule, the kcat (deglycosylated rituximab [3]; [5]) was 0.0922 ± 0.0318 s⁻¹, the Km (deglycosylated rituximab [3]; Endo-S mutants, acceptor substrate deglycosylated rituximab, SCT-Oxa fixed at 400 μM, listed as D233M) was 30 µM and the “transglycosylation efficiency in time-course (in words)” value (deglycosylated rituximab [4]) was “more efficient than the previously identified mutants, D233A and D233Q”.

B2: Endo-S D233Q (protein)
chain: B1 chain with M233Q
With B2 the “Specific Hydrolysis Activity” value (rituximab) was 0.05 100*(μmol/min/mg), the “Transglycosylation Activity” value (deglycosylated rituximab [1]) was 0.98 100*(μmol/min/mg) and the “Transglycosylation/Hydrolysis Ratio T/H” value (deglycosylated rituximab [1]) was 19.60.

B3: Endo-S D233A (protein)
chain: B1 chain with M233A
With B3 the “Specific Hydrolysis Activity” value (rituximab) was 0.06 100*(μmol/min/mg), the “Transglycosylation Activity” value (deglycosylated rituximab [1]) was 1.06 100*(μmol/min/mg) and the “Transglycosylation/Hydrolysis Ratio T/H” value (deglycosylated rituximab [1]) was 17.67. It also gave a Km [2] of 87.9 ± 10.1 µM, a kcat [2] of 0.0223 ± 0.00317 s⁻¹ and a Km (deglycosylated rituximab [3]; [5]) of over 200 µM.
